# Measurements taken from PMC3224728, “Identification of target genes of transcription factor activator protein 2 gamma in breast cancer cells”.
# B1: WtR4-28-854/CDH2 (dsDNA)
# DNA 1: ATGCGACCTGCAGGCATGCCA
# DNA 2: TGGCATGCCTGCAGGTCGCAT
# B2: MtR3-36-676/HPSE (dsDNA)
# DNA 1: AATGTGATTCTGATCACTTAG
# DNA 2: CTAAGTGATCAGAATCACATT
# B3: WtR3-36-676/HPSE (dsDNA)
# DNA 1: AATGTGGCCCTGGTCACTTAG
# DNA 2: CTAAGTGACCAGGGCCACATT
# B4: MtR3-36-648/HPSE (dsDNA)
# DNA 1: AAAAGTATTCAGGGCCCATGA
# DNA 2: TCATGGGCCCTGAATACTTTT
# B5: MtR1-15-286/IGSF11 (dsDNA)
# DNA 1: TTTGCTATTTTTATCCTGTAG
# DNA 2: CTACAGGATAAAAATAGCAAA
# B6: WtR3-36-648/HPSE (dsDNA)
# DNA 1: AAAAGTGCCCAGAGCCCATGA
# DNA 2: TCATGGGCTCTGGGCACTTTT
# B7: MtR4-28-854/CDH2 (dsDNA)
# DNA 1: ATGCGACCCGCAAATATGCCA
# DNA 2: TGGCATATTTGCGGGTCGCAT
# B8: WtR1-15-286/IGSF11 (dsDNA)
# DNA 1: TTTGCTGCCTTTGTCCTGTAG
# DNA 2: CTACAGGACAAAGGCAGCAAA
# B9: HMT (dsDNA)
# DNA 1: AACGGACCGCCCGCGGCCCGT
# DNA 2: ACGGGCCGCGGGCGGTCCGTT
# Biological target: T1, GST-AP-2γ (UniProt Q92754 1-450)
# Assay: EMSA; 10 mM HEPES pH 8.0, 60 mM KCl, 4 mM MgCl2, 0.1 mM EDTA, 100 μg/ml BSA, 0.25 mM DTT, 10% glycerol, 37°C 20 min; 5 pmol probe, 50 pmol protein in 15 μl; 6% native PAGE
# Conditions: protein: recombinant; tags: GST (N-terminal, pGEX-4T-2); chain copies: 2; label: 32P 5' end of forward strand; blunt
# T1 sequence (Q92754 whole entry): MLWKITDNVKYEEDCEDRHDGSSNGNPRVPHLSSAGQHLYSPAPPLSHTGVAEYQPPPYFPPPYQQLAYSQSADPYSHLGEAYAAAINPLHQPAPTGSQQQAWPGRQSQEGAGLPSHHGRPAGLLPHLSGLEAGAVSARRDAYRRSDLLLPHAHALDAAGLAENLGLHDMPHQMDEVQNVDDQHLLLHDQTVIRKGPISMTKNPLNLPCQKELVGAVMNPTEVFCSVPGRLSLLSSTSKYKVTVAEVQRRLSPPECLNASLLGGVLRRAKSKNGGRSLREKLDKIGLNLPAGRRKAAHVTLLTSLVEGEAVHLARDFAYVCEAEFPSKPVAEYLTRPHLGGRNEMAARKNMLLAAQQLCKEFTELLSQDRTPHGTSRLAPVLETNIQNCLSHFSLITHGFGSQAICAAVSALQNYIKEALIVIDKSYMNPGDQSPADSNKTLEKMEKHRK
row,Binder,binding result
1,B1,binds
2,B2,no binding
3,B3,no binding
4,B4,no binding
5,B5,no binding
6,B6,binds
7,B7,no binding
8,B8,binds

# Biological target: T1, GST-AP-2γ
# Assay: competition; 10- or 50-fold excess unlabeled vs wild-type HPSE-648, CDH2-854, IGSF11-286 probes; markedly decreased binding; 10 mM HEPES pH 8.0, 60 mM KCl, 4 mM MgCl2, 0.1 mM EDTA, 100 μg/ml BSA, 0.25 mM DTT, 10% glycerol, 37°C 20 min; 5 pmol probe, 50 pmol protein in 15 μl; 6% native PAGE
# Conditions: protein: recombinant; tags: GST (N-terminal, pGEX-4T-2); chain copies: 2; blunt
row,Binder,binding result
1,B9,binds
